Experimental data: the supplement of paper PMC10899765
Where “and” joins values, the source holds several entries; their conditions need not be identical. Equal values may be shown once.

These sequences were tested on MCF10A (assay: 5+ nucleoli phenotype percent effect (relative to siNT 0% and siKIF11 100%); higher = more cells with five or more nucleoli). Settings: 20 nM; 72 h.
Procedure: (§1)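 After 72 h, cells were fixed and stained with Hoechst and anti-fibrillarin, and nucleoli per nucleus were counted with CellProfiler. Values are plate-adjusted percent effect for the one-nucleolus and 5+ nucleoli phenotypes, normalised to siNT (0%) and to the positive controls siNOL11 or siKIF11 (100%), as the mean of biological triplicates. Percent viability is the nuclei count relative to siNT.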

Row | Sequence | 5+ nucleoli phenotype percent effect
1 | CUUGGAUUUUCCUGGGCCUCAG [hsa-miR-5004-3p] | -12%
2 | UCGUGCAUAUAUCUACCACAU [hsa-miR-4536-3p] | 0.0637%
3 | UGACCUCUCCGCUCCGCACAG [hsa-miR-6821-3p] | -22.7%
4 | UAGGAGGGAAUAGUAAAAGCAG [hsa-miR-4779] | -25.8%
5 | UCAUCCUCGUCUCCCUCCCAG [hsa-miR-5196-3p] | -6.21%
6 | AGGACCUUCCCUGAACCAAGGA [hsa-miR-659-5p] | -33.7%
7 | UGCAUGACCCUUCCCUCCCCAC [hsa-miR-6797-3p] | -8.08%
8 | CAAAAGUAAUUGUGGAUUUUGU [hsa-miR-548n] | 52.2%
9 | CCAGUUACCGCUUCCGCUACCGC [hsa-miR-935] | -23.4%
10 | AGGGCCAGAGGAGCCUGGAGUGG [hsa-miR-4726-5p] | 18.8%
11 | GGGGGGAUGUGCAUGCUGGUU [hsa-miR-4525] | -7.81%
12 | UACGUAGAUAUAUAUGUAUUUU [hsa-miR-1277-3p] | 41.8%
13 | GACCGAGAGGGCCUCGGCUGU [hsa-miR-4523] | 18.2%
14 | UGACGCCCCUUCUGAUUCUGCCU [hsa-miR-6786-3p] | -4.1%
15 | UCAGCAGGCAGGCUGGUGCAGC [hsa-miR-3619-5p] | -36.5%
16 | AAGGCCUUUCUGAACCUUCAGA [hsa-miR-3142] | -15%
17 | AGGGCAUGUCCAGGGGGU [hsa-miR-4253] | 17.7%
18 | ACUGGGAAGAGGAGCUGAGGGA [hsa-miR-4646-5p] | -6.37%
19 | UACCCAGAGCAUGCAGUGUGAA [hsa-miR-1912] | -35.1%
20 | AAAUUAUUGUACAUCGGAUGAG [hsa-miR-944] | -36.2%
21 | ACUGAAUCCUCUUUUCCUCAG [hsa-miR-5187-3p] | 0.116%
22 | AACUAGCUCUGUGGAUCCUGAC [hsa-miR-4661-5p] | -18.4%
23 | AAGCCUCUGUCCCCACCCCAG [hsa-miR-6819-3p] | -5.25%
24 | CUAUACGGCCUCCUAGCUUUCC [hsa-let-7e-3p] | 7.57%
25 | UGUGACAAUAGAGAUGAACAUG [hsa-miR-4504] | -15.9%
26 | UGGGUUUACGUUGGGAGAACU [hsa-miR-629-5p] | -19.1%
27 | UAGCACCAUUUGAAAUCAGUGUU [hsa-miR-29b-3p] | 20.2%
28 | CAAACCACACUGUGGUGUUAGA [hsa-miR-497-3p] | 4.48%
29 | GCUACUUCACAACACCAGGGCC [hsa-miR-138-1-3p] | 30.5%
30 | GCCCAAAGGUGAAUUUUUUGGG [hsa-miR-186-3p] | 26.4%

The sequences below were run on MCF10A (assay: percent viability (nuclei count relative to siNT); higher = more viable cells). Settings: 20 nM; 72 h.
Procedure: as §1

Row | Sequence | percent viability
31 | UAAGUGCUUCCAUGUUUUGGUGA [hsa-miR-302a-3p] | 78.9%
32 | GCAGGGACAGCAAAGGGGUGC [hsa-miR-211-3p] | 38.3%
33 | UGGGAUCCAGACAGUGGGAGAA [hsa-miR-4713-3p] | 26%
34 | UGCUGAGGUCCGGGCUGUGCC [hsa-miR-7160-5p] | 16.8%
35 | UAGCAGCACAUAAUGGUUUGUG [hsa-miR-15a-5p] | 17.3%
36 | UCCCAAGGGUGAGAUGCUGCCA [hsa-miR-6814-5p] | 48.6%
37 | UUCACAGGGAGGUGUCAU [hsa-miR-513a-5p] | 68%
38 | UGCCCUCCUUUCUUCCCUC [hsa-miR-4290] | 21.6%
39 | ACUGGACUUGGAGUCAGAAA [hsa-miR-378d] | 25.4% and 31.6%
40 | AAGACUGAGAGGAGGGA [hsa-miR-4499] | 123%
41 | UGGUCGACCAGUUGGAAAGUAAU [hsa-miR-412-5p] | 46.8%
42 | UUGCUCACUGUUCUUCCCUAG [hsa-miR-1178-3p] | 50.3%
43 | UUGUCUGCUGAGUUUCC [hsa-miR-4288] | 31.9%
44 | UCUGGGCAACAAAGUGAGACCU [hsa-miR-1285-3p] | 28.8%
45 | UUCUGGAUAUGAAGACAAUCAA [hsa-miR-4782-5p] | 16.3%
46 | UCCAGUGCCCUCCUCUCC [hsa-miR-1825] | 70.3%
47 | AGGCAGCGGGGUGUAGUGGAUA [hsa-miR-885-3p] | 19.2%
48 | AAAGUGCUUCCUUUUAGAGGG [hsa-miR-520b] | 70.9%
49 | GUUGGGGUGCAGGGGUCUGCU [hsa-miR-5572] | 19.7%
50 | GAGGGUCUUGGGAGGGAUGUGAC [hsa-miR-1182] | 104%

Row | Sequence | percent viability
51 | UCAGGACACUUCUGAACUUGGA [hsa-miR-5000-3p] | 53.5%
52 | ACUCUAGCUGCCAAAGGCGCU [hsa-miR-1251] | 80.4%
53 | CUCGGGAGGGCAUGGGCCAGGC [hsa-miR-6771-5p] | 50.5%
54 | UGACCUGGGACUCGGACAGCUG [hsa-miR-3661] | 31.7%
55 | UCAAAAUGUAGAGGAAGACCCCA [hsa-miR-4698] | 127%
56 | UGACUCUGCCUGUAGGCCGGU [hsa-miR-4522] | 16.2%
57 | CAGUGUUCAGAGAUGGA [hsa-miR-4255] | 148%
58 | ACAGGCAGGAUUGGGGAA [hsa-miR-4514] | 18.4%
59 | AAAAGUAAUUGUGGAUUUUGCU [hsa-miR-548ab] | 67.8%
60 | CAGUGCAAUGAUGAAAGGGCAU [hsa-miR-130b-3p] | 77%
61 | CUUGGAUUUUCCUGGGCCUCAG [hsa-miR-5004-3p] | 51.4%
62 | UCGUGCAUAUAUCUACCACAU [hsa-miR-4536-3p] | 49.3%
63 | UGACCUCUCCGCUCCGCACAG [hsa-miR-6821-3p] | 38.9%
64 | UAGGAGGGAAUAGUAAAAGCAG [hsa-miR-4779] | 15%
65 | UCAUCCUCGUCUCCCUCCCAG [hsa-miR-5196-3p] | 44.3%
66 | AGGACCUUCCCUGAACCAAGGA [hsa-miR-659-5p] | 40.3%
67 | UGCAUGACCCUUCCCUCCCCAC [hsa-miR-6797-3p] | 31.8%
68 | CAAAAGUAAUUGUGGAUUUUGU [hsa-miR-548n] | 137%
69 | CCAGUUACCGCUUCCGCUACCGC [hsa-miR-935] | 59%
70 | AGGGCCAGAGGAGCCUGGAGUGG [hsa-miR-4726-5p] | 50.1%

Row | Sequence | percent viability
71 | GGGGGGAUGUGCAUGCUGGUU [hsa-miR-4525] | 26.2%
72 | UACGUAGAUAUAUAUGUAUUUU [hsa-miR-1277-3p] | 135%
73 | GACCGAGAGGGCCUCGGCUGU [hsa-miR-4523] | 67.7%
74 | UGACGCCCCUUCUGAUUCUGCCU [hsa-miR-6786-3p] | 50.9%
75 | UCAGCAGGCAGGCUGGUGCAGC [hsa-miR-3619-5p] | 27.1%
76 | AAGGCCUUUCUGAACCUUCAGA [hsa-miR-3142] | 23.2%
77 | AGGGCAUGUCCAGGGGGU [hsa-miR-4253] | 28.5%
78 | ACUGGGAAGAGGAGCUGAGGGA [hsa-miR-4646-5p] | 35%
79 | UACCCAGAGCAUGCAGUGUGAA [hsa-miR-1912] | 29.7%
80 | AAAUUAUUGUACAUCGGAUGAG [hsa-miR-944] | 33.3%
81 | ACUGAAUCCUCUUUUCCUCAG [hsa-miR-5187-3p] | 67.9%
82 | AACUAGCUCUGUGGAUCCUGAC [hsa-miR-4661-5p] | 13.9%
83 | AAGCCUCUGUCCCCACCCCAG [hsa-miR-6819-3p] | 70.8%
84 | CUAUACGGCCUCCUAGCUUUCC [hsa-let-7e-3p] | 45%
85 | UGUGACAAUAGAGAUGAACAUG [hsa-miR-4504] | 39.9%
86 | UGGGUUUACGUUGGGAGAACU [hsa-miR-629-5p] | 52.3%
87 | UAGCACCAUUUGAAAUCAGUGUU [hsa-miR-29b-3p] | 63.7%
88 | CAAACCACACUGUGGUGUUAGA [hsa-miR-497-3p] | 49.6%
89 | GCUACUUCACAACACCAGGGCC [hsa-miR-138-1-3p] | 112%
90 | GCCCAAAGGUGAAUUUUUUGGG [hsa-miR-186-3p] | 176%
